Reference: US20180127503A1 (EUREKA THERAPEUTICS, published 2018)

Experiments:
[1] = target: T1, human ROR2 ECD-Fc fusion protein (human, UniProt Q01974 34-403); test: phage ELISA on coated ROR2 ECD-Fc
T1 construct: Panning and phage ELISA antigen; also called human ROR2-ECD (phage ELISA); not shown: Fc part and any linker are not described

[2] = target: T1, human ROR2 ECD-Fc fusion protein; test: summary of the phage clone screening (ELISA)
[3] = target: T2, human ROR1 ECD-Fc fusion protein (human, UniProt Q01973 30-406); test: summary of the phage clone screening (ELISA)
T2 construct: not shown: Fc part and any linker are not described
T2 sequence (Q01973 30-406): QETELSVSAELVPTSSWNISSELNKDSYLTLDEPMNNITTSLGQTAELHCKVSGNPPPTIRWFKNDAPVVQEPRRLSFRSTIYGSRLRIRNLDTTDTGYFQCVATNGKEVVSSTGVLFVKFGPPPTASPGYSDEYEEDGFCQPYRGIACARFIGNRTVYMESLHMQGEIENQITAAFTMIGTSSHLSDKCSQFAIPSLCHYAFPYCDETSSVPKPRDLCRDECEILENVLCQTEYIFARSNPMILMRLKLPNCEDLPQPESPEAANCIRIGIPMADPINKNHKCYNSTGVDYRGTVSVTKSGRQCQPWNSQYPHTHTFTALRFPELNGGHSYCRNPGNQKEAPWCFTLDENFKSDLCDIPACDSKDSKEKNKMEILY

T1 sequence (Q01974 34-403): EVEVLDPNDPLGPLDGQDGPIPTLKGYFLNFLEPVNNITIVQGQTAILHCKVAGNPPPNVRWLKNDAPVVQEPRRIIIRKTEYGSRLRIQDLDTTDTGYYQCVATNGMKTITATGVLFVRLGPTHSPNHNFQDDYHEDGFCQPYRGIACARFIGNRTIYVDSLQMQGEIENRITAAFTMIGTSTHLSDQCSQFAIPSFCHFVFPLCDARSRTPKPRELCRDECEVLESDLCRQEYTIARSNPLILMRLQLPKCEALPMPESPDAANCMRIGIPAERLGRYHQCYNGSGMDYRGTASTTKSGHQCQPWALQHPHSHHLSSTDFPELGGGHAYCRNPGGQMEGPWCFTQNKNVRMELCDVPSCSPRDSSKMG

Row | Binder | binding result [1] | binding result [2] | binding result [3]
1 | ROR2 clone #024 scFv phage antibody (scFv, V domains shown, also called clone #24; ROR2-24) VH: EVQLVQSGAEVKKPGESLKISCKASGYSFSNYWIGWVRQMPGKGLEWMGIIYPDDSDTRYSPSVQGQVTISADKSISTAYLQWYSLKVADTAKYYCVRPRGAFDIWGQGTTVTVSS VL: EIVMTQSPATLSVSPGESATLSCRASQGVGINLAWYQQRPGQPPRLLIYDASNRATGIPARFSGSGSGTDFTLTISSLQAEDVAVYYCQQYYSFPWTFGQGTKVEIKR | binds |  | 
2 | ROR2 clone #093 scFv phage antibody (scFv, V domains shown, also called clone #93; ROR2-93) VH: QMQLVQSGGGVVQPGRSLRLSCAASGFTFSNYDMHWVRRAPGKGLEWVAVISYDGSNNYYADSVKGRFTISRDNSKNTLYLQMNSLRAEDTAVYYCARSSAWVGGGFLSGTDDWGQGTLVTVSS VL: EIVMTQSPATLSLSPGERATLSCGASQSVSSSYLAWYQQKPGLAPRLLIYDTSRRATGIPDRFSGSGSGTDFTLTISRLEPEDFAVYYCLHYGRSPPVTFGGGTKVEIKR |  | binds | 
3 | ROR2 clone #096 scFv phage antibody (scFv, V domains shown, also called clone #96; ROR2-96) VH: EVQLVQSGGGLVQPGGSLRLSCAASGFSLNDYYMDWVRQAPGEGLEWVGRIRDKAHGDTTEYIASVKDRFIVSRDDSKNSLYLQMNSLKTEDTAMYYCARWVDDYQGYWIWSYHDFWGQGTLVTVSS VL: EIVLTQSPLSLPVTLGQPASISCRSSQSLAYSDGNTYLNWFHQRPGQSPRRLIYKVSKRDSGVPDRFSGSGSGTDFTLRISRVEAEDVGIYYCMQGTHWPHTFGPGTKVDIKR |  | binds | 
4 | ROR2 clone #173 scFv phage antibody (scFv, V domains shown, also called ROR2-173) VH: QVQLVQSGAEVKKPGASVKVSCKASGYTFTSYGISWVRQAPGQGLEWMGWISAYNGNTNYAQKLQGRVTMTTDTSTSTAYMELRSLRSDDTAVYYCARHLGPMGMYDWSFDKWGQGTLVTVSS VL: QSVLTQPPSVSVAPGKTARITCGGDNIGRKSVHWYQQKPGQAPVLVIYYDSDRPSGIPERFSGSTSGNTATLTISRVEAGDEADYYCQVWDRSSDLYVFGTGTKVTVLG |  | binds | 
5 | ROR2 clone #016 scFv phage antibody (scFv, V domains shown, also called clone #16; ROR2-16) VH: EVQLVQSGAEVKKPGASVKVSCKASGYTFTDYYIHWVRQAPGQGLEWMGWMNPNSGNSVSAQKFQGRVTMTRDTSINTAYMELSSLTSDDTAVYYCARNSEWHPWGYYDYWGQGTLVTVSS VL: SSELTQDPAVSVALGQTVRITCQGDSLRSYYASWYQQKPGQAPVLVIYGKNNRPSGIPDRFSGSSSGNTASLTITGAQAEDEADYYCNSRDSSGNHLVFGGGTKLTVLG |  | binds | binds
6 | ROR2 clone #084 scFv phage antibody (scFv, V domains shown, also called clone #84; ROR2-84) VH: QVQLVESGGGLVQPGGSLRLSCAASGFTFSSYWMSWVRQAPGKGLEWVANIKQDGSEKYYVDSVRGRFTISRDNAKNSLYLQMNSLRAEDTAMYYCARGSFSYDSDLWGQGTLVTVSS VL: DVVMTQSPLSLPVTLGQPASISCRSSQSLVHSDGNTYLNWFQQRPGQSPRRLIYKVSSRDSGVPDRFSGTGSGTDFTLKISRVEAEDVGVYYCMQTTHWPPTFGQGTKVEIKR |  | binds | 
7 | ROR2 clone #121 scFv phage antibody (scFv, V domains shown, also called ROR2-121) VH: QVQLVQSGGGLVQPGGSLRLSCAATGFTFSSYAMSWVRQAPGKGLEWVSVISGSGGSTYYADSVKGRFTISRDNSKNTLYLQMNSLRADDTAVYYCARHYYSSDSWGQGTLVTVSS VL: SYVLTQPPSVSVSPGQTASVTCSGYRLREKYVSWYQQRPGHSPVLVIYEDTKRPSGIPERFSGSNSGDTATLTIRGTQAIDEADYYCQAWDSSVIFGGGTKLTVLG |  | binds | 
8 | ROR2 clone #159 scFv phage antibody (scFv, V domains shown, also called ROR2-159) VH: QMQLVQSGAEVKKPGASVKVSCKASGYTFTSYYMHWVRQAPGQGLEWMGIINPSGGSTSYAQKFQGRVTMTRDTSTSTVYMELSSLRSEDTAVYYCARGGYTGWSPSDPWGQGTLVTVSS VL: QSALTQPASVSGSPGQSITISCTGTSSDVGGYNYVSWYQQHPGKAPKFMIYDVSKRPSGVSNRFSGSKSGNTASLTISGLQAEDEADYYCGSFTSSITYVFGTGTKVTVLG |  | binds | binds
